Results published in the supplement of paper PMC10567573.

B1: ZNF24 (parent)
chain: YGETCFPKGRFERKRNPSRKKQHI
B2: VPS39 (parent)
chain: QQVKCIITEEKVCMVCKKKIGNSA

Variants of: B1
Experiment: protein stability index of a GFP-peptide fusion (GPS, HEK-293T) (PSI 1-6); higher = more stable
Conditions: c terminus: a fixed tail appended
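Further: lentivirally expressed fusions sorted by FACS into six bins by GFP to DsRed ratio, PSI derived from sequencing read proportions per bin multiplied by bin number.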

Protein stability index: each site, then its substitutions
I24: Q 3.08, R 2.86, G 2.64, K 3.22, P 2.29, A 3.43, M 2.57, S 2.77, C 2.9, H 2.93, V 3, F 2.71, T 3.42, L 2.78, Y 3, D 2.6, W 2.3, E 3.13, N 3.54
S18: R 2.82, N 3.87, E 3.63, F 2.71, P 2.48, I 2.88, W 2.22, D 3.07, A 2.55, H 2.34, Q 3.03, C 2.76, T 2.72, L 3.16, V 2.62, G 3.53, Y 2.02, M 2.77, K 3.1
H23: T 2.43, Y 2.76, L 2.57, Q 2.95, C 2.85, W 2.3, D 2.42, M 3.14, E 2.68, P 3.1, G 3.25, K 3.22, A 2.42, I 2.57, R 2.73, N 2.85, S 2.56, V 2.78, F 2.95
N16: W 2.21, P 2.31, L 2.49, E 2.89, Y 2.82, R 2.63, V 1.94, G 2.5, T 2.89, A 2.5, F 2.23, Q 2.87, D 2.15, C 2.14, M 2.71, K 2.9, S 2.92, I 2.7
E12: C 2.8, Q 2.3, T 3.16, V 2.16, S 2.85, A 2.49, D 3.26, H 3.09, I 2.34, M 1.87, R 3.88, P 3.11, G 3.16, K 2.91, W 2.3, F 2, L 3.59, Y 2.46, N 3.1
F11: W 2.2, C 2.58, V 2.59, I 2.59, K 3.13, P 2.97, M 2.55, S 3.18, Q 3.41, T 3.28, E 3.16, N 3.33, A 3.43, Y 3.32, D 2.99, L 2.35, G 3.32, H 3.05
P17: W 2.52, C 2.37, G 2.97, A 2.56, Y 2.34, L 2.5, K 2.5, S 2.62, N 3, F 2.78, Q 2.95, E 2.93, R 2.89, M 2.79, T 3.09, H 3.04, D 3.58, V 2.25
Q22: K 2.73, W 2.25, I 2.28, N 2.94, S 3.4, T 2.67, F 2.23, V 2.4, A 2.97, M 2.61, G 2.95, E 3.19, P 2.59, H 2.33, Y 2.46, L 2.4, R 2.69, D 2.9, C 2.14
R19: A 3.07, I 2, K 2.82, S 3.38, M 2.89, N 2.86, G 2.69, L 2.06, W 2.42, V 2.89, Y 2.68, E 2.56, Q 2.26, F 1.83, H 3.22, P 3.28, T 3.5, D 2.95
R10: P 2.56, I 2.92, G 3.44, C 2.66, Y 2.72, W 1.71, L 2.67, M 2.9, D 3.66, N 2.93, T 3.23, F 2.83, H 2.55, A 2.6, E 3.07, K 2.71, Q 3.38, S 2.82, V 2.24
K21: T 2.97, M 2.08, P 2.61, E 3.1, N 3.23, F 2.09, Q 2.59, W 2.17, V 2.2, C 2.45, D 3.11, L 1.95, S 3.05, R 2.85, I 2.38, Y 3.23, H 2.73, G 3.16, A 2.78
K14: C 2.41, H 2.51, M 2.7, D 3.63, N 3.48, S 2.65, Y 2.89, E 3.65, G 2.92, T 2.27, Q 3.1, V 2.42, R 2.8, F 2.55, P 3.18, L 2.82, I 2.96, A 3.21, W 2.34
R15: G 2.75, P 3.15, A 2.76, N 3.2, Q 2.88, I 2.28, F 2.83, C 2.65, Y 2.02, M 3.17, H 2.84, T 2.46, S 2.79, W 2.76, K 2.03, L 2.76, D 3.17, E 2.93, V 2.83
R13: S 3.14, H 3.21, D 2.93, K 2.9, C 2.33, T 2.3, Q 2.61, G 2.22, E 3.1, I 2.32, N 2.87, A 2.96, P 3, W 1.75, V 2.19, M 2.15, Y 2.25, F 2.43, L 2.58
G9: V 1.72, T 2.7, Y 3.75, S 3, P 2.41, Q 3.28, W 2.15, R 2.85
K20: C 2.1, L 2.05, Q 2.34, T 2.44, F 2.45, E 2.77, A 3.31, G 3.29, P 2.49, N 3.08, D 3.48, I 2.63, W 1.99, R 2.34, V 2.66, H 3.09, M 2.08, Y 2.76, S 3.17

Variants of: B2
Experiment: as above
Conditions: c terminus: a fixed tail appended

Protein stability index, by site and new letter:
Q1: M 1.83, H 2.59, C 2.4, P 2.79, S 2.57, E 2.67, R 2.24, A 1.95, G 3.05, W 1.98, T 2.52, Y 1.64, V 1.11, N 2.91, F 1.49, L 2.62, D 3.69, I 1.9, K 1.88
V3: F 1.89, D 3.92, G 3.01, H 5.16, C 4.46, E 3.47, A 2.81
Q2: L 2.4, W 2.72, G 2.32, K 2.59, R 2.59, T 2.61, V 3.17, M 2.93, C 4.17, N 2.26, P 2.77, Y 2.37, A 2.94, F 2.17, S 3.77, E 3.37, D 3.15, H 3.05, I 1.45
